Assay results from IntAct's records for PubMed 30567737.

B1: 17S U2 SnRNP complex component HTATSF1 (Homo sapiens), O43719 (parent)
chain: MSGTNLDGNDEFDEQLRMQELYGDGKDGDTQTDAGGEPDSLGQQPTDTPYEWDLDKKAWFPKITEDFIATYQANYGFSNDGASSSTANVEDVHARTAEEPPQEKAPEPTDARKKGEKRKAESGWFHVEEDRNTNVYVSGLPPDITVDEFIQLMSKFGIIMRDPQTEEFKVKLYKDNQGNLKGDGLCCYLKRESVELALKLLDEDEIRGYKLHVEVAKFQLKGEYDASKKKKKCKDYKKKLSMQQKQLDWRPERRAGPSRMRHERVVIIKNMFHPMDFEDDPLVLNEIREDLRVECSKFGQIRKLLLFDRHPDGVASVSFRDPEEADYCIQTLDGRWFGGRQITAQAWDGTTDYQVEETSREREERLRGWEAFLNAPEANRGLRRSDSVSASERAGPSRARHFSEHPSTSKMNAQETATGMAFEEPIDEKKFEKTEDGGEFEEGASENNAKESSPEKEAEEGCPEKESEEGCPKRGFEGSCSQKESEEGNPVRGSEEDSPKKESKKKTLKNDCEENGLAKESEDDLNKESEEEVGPTKESEEDDSEKESDEDCSEKQSEDGSEREFEENGLEKDLDEEGSEKELHENVLDKELEENDSENSEFEDDGSEKVLDEEGSEREFDEDSDEKEEEEDTYEKVFDDESDEKEDEEYADEKGLEAADKKAEEGDADEKLFEESDDKEDEDADGKEVEDADEKLFEDDDSNEKLFDEEEDSSEKLFDDSDERGTLGGFGSVEEGPLSTGSSFILSSDDDDDDI

Variants of: B1
Conditions: with SF3B1, O75533-1
Chain of SF3B1, O75533-1 (O75533 whole entry): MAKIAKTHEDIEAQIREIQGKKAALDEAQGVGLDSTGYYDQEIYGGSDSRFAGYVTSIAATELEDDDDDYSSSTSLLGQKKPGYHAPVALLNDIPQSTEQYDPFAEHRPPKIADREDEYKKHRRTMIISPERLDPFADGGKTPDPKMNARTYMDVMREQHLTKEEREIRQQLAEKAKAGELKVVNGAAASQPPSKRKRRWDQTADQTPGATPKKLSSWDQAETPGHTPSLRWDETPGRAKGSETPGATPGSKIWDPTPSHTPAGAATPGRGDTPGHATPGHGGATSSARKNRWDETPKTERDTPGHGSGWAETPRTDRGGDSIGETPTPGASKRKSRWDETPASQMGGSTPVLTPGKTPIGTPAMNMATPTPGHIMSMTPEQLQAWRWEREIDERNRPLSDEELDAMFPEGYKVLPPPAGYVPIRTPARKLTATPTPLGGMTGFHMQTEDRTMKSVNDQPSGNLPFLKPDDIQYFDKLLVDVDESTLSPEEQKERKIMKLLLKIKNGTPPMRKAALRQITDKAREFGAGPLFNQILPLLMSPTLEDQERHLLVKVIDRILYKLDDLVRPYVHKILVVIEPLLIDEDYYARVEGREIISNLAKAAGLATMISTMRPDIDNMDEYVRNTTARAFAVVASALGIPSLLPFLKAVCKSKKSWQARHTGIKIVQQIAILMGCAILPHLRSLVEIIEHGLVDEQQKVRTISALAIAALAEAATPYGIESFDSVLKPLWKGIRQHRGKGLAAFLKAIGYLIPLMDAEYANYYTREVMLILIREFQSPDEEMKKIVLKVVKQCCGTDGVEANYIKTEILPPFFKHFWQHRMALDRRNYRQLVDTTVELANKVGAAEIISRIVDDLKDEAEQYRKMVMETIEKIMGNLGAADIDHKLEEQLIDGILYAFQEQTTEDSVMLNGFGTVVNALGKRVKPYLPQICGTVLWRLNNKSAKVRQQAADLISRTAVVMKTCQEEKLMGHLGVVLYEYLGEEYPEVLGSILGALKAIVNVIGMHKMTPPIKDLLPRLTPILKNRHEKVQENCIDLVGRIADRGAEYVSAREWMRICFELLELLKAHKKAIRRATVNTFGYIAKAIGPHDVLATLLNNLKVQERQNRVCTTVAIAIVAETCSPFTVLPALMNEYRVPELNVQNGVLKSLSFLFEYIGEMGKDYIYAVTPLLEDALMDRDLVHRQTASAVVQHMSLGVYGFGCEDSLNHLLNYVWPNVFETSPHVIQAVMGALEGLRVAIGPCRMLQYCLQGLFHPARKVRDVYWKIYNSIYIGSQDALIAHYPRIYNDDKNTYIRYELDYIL

Row | effect of a mutation on the interaction | Variant
1 | disrupting interaction strength | E286K;D290K
2 | disrupting interaction strength | E286K;F337A
